# Test results taken from patent US20110142789A1 (University of Pennsylvania, published 2011).
# B1: TDP-43ΔNLS,5F→L-YFP (other, human, UniProt Q13148 1-414, looked up)
# chain: MSEYIRVTEDENDEPIEIPSEDDGTVLLSTVTAQFPGACGLRYRNPVSQCMRGVRLVEGILHAPDAGWGNLVYVVNYPKDNAAAMDETDASSAVKVKRAVQKTSDLIVLGLPWKTTEQDLKEYFSTFGEVLMVQVKKDLKTGHSKGLGLVRFTEYETQVKVMSQRHMIDGRWCDCKLPNSKQSQDEPLRSRKVLVGRCTEDMTEDELREFFSQYGDVMDVFIPKPFRALALVTFADDQIAQSLCGEDLIIKGISVHISNAEPKHNSNRQLERSGRFGGNPGGFGNQGGFGNSRGGGAGLGNNQGSNMGGGMNFGAFSINPAMMAAAQAALQSSWGMMGMLASQQNQSGPSGNNQNQGNMQREPNQAFGSGNNSYSGSNSGAAIGWGSASNAGSGSGFNGGFGSSMDSKSSGWGM
# notes: also called ΔNLS-TDP-43-(5F→L)-YFP; not shown: C-terminal YFP tag
# Molecular target: T1, endogenous human Ataxin-2 (human, UniProt Q99700 1-1313, limits assumed)
# T1 construct: Endogenous protein in HEK293T lysate, detected by immunoblot with α-Ataxin-2 (BD); also called ATXN2
# Experiment: co-immunoprecipitation from HEK293T lysate (α-GFP IP, α-Ataxin-2 blot)
# From the text: CFP-Pbp1 and TDP-43-YFP show accumulations in yeast that frequently co-localize (arrows). b) Co-immunoprecipitation assays in yeast. Yeast cells co-transformed with untagged TDP-43 and either CFP-Pbp1 or CFP alone were lysed and subjected to immunoprecipitation with an α-GFP antibody (also detects CFP), then subjected to immunoblotting with a-TDP43. […] HEK293T cells were transfected with expression constructs encoding YFP, TDP-43-YFP, TDP-43ΔNLS-YFP (NLS mutant that localizes the protein to the cytoplasm), TDP-43_{ΔNLS,5F}_{_{→}}L-YFP (NLS mutant coupled with RNA-binding mutant, (5 point mutations in the RRM domains that abolish RNA-binding)), or TDP-435F_{_{→}}L-YFP (RNA-binding mutant). Protein was immunoprecipitated with a-GFP antibody (detects YFP), and then subjected to immunoblotting with a-Ataxin-2 to detect endogenous Ataxin-2. […] The interaction between Ataxin-2 and TDP-43 seen normally (left lanes) was abolished upon RNase treatment (right lanes). e) HEK293T cells transfected with YFP-tagged WT and mutant TDP-43 constructs then immunostained for endogenous Ataxin-2. Normally, Ataxin-2 is localized to the cytoplasm forming occasional cytoplasmic accumulations. TDP-43 localized to the nucleus in a diffuse pattern. […]
# T1 sequence (Q99700 whole entry): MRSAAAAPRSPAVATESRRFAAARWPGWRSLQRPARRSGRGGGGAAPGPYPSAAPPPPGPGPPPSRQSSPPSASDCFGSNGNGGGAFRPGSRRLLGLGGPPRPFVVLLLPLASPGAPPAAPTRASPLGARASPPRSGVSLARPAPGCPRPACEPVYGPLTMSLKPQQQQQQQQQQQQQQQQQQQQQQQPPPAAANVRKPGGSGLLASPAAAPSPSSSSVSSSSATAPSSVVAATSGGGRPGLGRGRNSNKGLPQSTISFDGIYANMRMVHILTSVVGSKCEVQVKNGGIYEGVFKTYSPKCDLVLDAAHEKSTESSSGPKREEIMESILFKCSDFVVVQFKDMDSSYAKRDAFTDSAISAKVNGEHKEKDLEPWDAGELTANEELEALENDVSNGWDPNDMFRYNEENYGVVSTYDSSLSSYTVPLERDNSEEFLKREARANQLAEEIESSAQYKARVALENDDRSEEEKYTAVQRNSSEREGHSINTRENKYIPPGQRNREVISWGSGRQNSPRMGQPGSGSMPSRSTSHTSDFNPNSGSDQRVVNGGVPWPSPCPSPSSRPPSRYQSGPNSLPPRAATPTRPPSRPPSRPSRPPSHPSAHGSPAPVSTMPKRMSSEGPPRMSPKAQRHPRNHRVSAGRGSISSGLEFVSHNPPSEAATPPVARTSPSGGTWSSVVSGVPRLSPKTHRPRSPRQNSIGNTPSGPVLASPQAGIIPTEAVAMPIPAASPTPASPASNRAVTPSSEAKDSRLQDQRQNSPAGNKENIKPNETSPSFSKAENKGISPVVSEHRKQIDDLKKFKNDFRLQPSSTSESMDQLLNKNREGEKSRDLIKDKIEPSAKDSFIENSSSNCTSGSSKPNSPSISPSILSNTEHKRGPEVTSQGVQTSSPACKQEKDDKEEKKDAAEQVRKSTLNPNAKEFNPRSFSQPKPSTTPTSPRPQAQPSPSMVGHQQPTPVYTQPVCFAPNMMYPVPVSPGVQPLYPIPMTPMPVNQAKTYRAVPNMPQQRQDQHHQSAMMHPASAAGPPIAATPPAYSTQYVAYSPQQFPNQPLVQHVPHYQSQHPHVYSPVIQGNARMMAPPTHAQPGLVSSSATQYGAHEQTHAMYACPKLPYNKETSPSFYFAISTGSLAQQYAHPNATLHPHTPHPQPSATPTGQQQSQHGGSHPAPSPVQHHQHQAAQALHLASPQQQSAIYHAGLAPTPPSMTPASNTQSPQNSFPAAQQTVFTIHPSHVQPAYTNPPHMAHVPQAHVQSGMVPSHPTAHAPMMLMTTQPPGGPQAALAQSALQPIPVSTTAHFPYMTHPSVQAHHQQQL
binder,measurement,value
B1,binding result,no binding
